Literature values in publication PMC7212196.

Molecular target: soluble IL-6 receptor (Homo sapiens) (UniProt P08887)
UniProt P08887, sequence (P08887 20-355): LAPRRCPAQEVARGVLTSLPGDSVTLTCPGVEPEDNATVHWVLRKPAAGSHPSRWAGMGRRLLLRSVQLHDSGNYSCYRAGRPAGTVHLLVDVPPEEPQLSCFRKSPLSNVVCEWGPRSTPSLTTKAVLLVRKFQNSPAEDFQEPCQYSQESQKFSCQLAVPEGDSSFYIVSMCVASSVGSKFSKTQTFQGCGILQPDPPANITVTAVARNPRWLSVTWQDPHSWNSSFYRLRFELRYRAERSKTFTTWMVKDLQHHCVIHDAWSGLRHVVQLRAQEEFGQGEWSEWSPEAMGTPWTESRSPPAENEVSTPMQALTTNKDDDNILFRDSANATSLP

IL-6, sequence (P05231 30-212): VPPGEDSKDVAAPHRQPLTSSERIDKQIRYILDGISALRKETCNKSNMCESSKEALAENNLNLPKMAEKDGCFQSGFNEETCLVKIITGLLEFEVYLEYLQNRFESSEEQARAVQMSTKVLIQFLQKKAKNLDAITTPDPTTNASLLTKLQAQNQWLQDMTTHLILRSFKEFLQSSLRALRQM

Kd: 5 nM
Substance: IL-6 (from UniProt P05231)
